Holding throughout (details): modification not given
For assay [1], the target named is V2R (Homo sapiens), P30518. In words: radioligand.
The target of assay [2] is T1, OTR (Homo sapiens), P30559.
T1 chain: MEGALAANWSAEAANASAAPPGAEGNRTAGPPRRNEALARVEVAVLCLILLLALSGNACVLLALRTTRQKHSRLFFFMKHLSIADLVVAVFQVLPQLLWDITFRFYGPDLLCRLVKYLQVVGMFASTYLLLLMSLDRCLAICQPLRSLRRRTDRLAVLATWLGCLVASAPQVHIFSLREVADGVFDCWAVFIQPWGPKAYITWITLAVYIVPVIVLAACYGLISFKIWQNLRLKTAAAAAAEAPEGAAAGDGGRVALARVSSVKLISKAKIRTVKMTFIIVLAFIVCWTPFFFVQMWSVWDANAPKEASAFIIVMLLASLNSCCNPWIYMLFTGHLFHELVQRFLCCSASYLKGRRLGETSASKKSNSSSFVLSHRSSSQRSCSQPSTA
As to the kind of experiment: radioligand displacement. In general terms: Displacement assays read how much labelled ligand stays bound in the presence of the test substance.

Assay [3] deals with V1aR (Homo sapiens), P37288. In words: radioligand displacement.
In assay [4] the target is T2, V1bR (Homo sapiens), P47901.
T2 chain: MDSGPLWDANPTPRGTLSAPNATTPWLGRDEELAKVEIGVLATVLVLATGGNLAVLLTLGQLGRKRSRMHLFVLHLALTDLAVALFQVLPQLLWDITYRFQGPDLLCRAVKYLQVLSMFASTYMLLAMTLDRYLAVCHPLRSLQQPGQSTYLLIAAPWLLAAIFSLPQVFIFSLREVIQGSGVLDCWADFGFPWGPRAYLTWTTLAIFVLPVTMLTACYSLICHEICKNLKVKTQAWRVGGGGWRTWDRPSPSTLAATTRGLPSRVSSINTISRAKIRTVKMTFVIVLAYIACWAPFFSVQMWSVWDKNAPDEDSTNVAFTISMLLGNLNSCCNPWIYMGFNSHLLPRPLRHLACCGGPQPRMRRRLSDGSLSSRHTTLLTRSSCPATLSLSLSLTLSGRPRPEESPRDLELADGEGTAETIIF
In words: radioligand displacement.

Consider one molecule from paper PMC5286520.

V1aR (Homo sapiens), P37288, sequence (P37288 whole entry): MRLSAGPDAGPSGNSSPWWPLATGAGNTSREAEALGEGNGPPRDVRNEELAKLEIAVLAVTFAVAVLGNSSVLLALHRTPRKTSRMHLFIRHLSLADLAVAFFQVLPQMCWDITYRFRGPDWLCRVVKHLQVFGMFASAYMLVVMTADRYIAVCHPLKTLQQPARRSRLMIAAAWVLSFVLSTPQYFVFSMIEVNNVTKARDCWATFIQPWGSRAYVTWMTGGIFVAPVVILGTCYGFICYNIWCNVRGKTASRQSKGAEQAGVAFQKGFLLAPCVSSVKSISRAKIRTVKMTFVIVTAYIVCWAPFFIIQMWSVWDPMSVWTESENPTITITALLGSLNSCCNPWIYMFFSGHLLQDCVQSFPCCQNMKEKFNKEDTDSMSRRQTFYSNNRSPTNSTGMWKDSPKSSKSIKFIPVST

A word on the Ki: it is the dissociation constant of the complex between target and ligand, obtained from inhibition or displacement. Low values mean a stronger hold on the target, high ones a looser hold on the target. Turning to CLITNCPRG [inotocin], the inhibition constant Ki was over 100000 nM in assay [1], 62 nM in assay [2], 11 nM in assay [3] and 12 nM in assay [4].
